Experiment [1] concerns the target recombinant human GH (Pharmaceutical and Medical Device Regulatory Science Society of Japan) (human) (UniProt P01241). The experiment in a line: cell-based or functional assay.
The target is the same in experiment [2]. Nature of the experiment: GH-GHR binding inhibition ELISA: biotin-labeled GH (5.5 ng/mL) on captured GHR-hFc, antibody varied. For orientation: ELISA stands for enzyme-linked immunosorbent assay.

Chain of recombinant human GH (Pharmaceutical and Medical Device Regulatory Science Society of Japan) (human) (P01241 27-217 limits assumed): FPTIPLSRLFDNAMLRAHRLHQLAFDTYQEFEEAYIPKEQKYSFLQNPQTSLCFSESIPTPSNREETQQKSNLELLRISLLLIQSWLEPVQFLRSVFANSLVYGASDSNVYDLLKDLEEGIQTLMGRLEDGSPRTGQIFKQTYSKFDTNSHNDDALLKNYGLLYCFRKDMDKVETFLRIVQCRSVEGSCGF

Broadly, the IC50 is the midpoint of a concentration-inhibition curve. Take “anti-GH mouse mAb (MAB1067, R&D Systems, Inc.) (antibody)”: the GH-dependent Nb2 cell proliferation inhibitory activity (IC50) in experiment [1] was 21.5 nM. Besides, the IC50 in experiment [2] came to 6.86 nM.

The values are drawn from patent US20240391996A1.
